This note sets out measurements from patent US8268585B2.

B1: 43 kD endoglucanase (pI 4.2), C1-EG6, Family 6, Chrysosporium lucknowense (enzyme)
chain: QASAGCASAVTLDASTNVFQQYTLHPNNFYRAEVEAAAEAISDSALAEKARKVADVGTFLWLDTIENIGRLEPALEDVPCENIVGLVIYDLPGRDCAAKASNGELKVGELDRYKTEYIDKIAEILKAHSNTAFALVIEPDSLPNLVTNSDLQTCQQSASGYREGVAYALKQLNLPNVVMYIDAGHGGWLGWDANLKPGAQELASVYKSAGSPSQVRGISTNVAGWNAWDQEPGEFSDASDAQYNKCQNEKIYINTFGAELKSAGMPNHAIIDTGRNGVTGLRDEWGDWCNVNGAGFGVRPTANTGDELADAFVWVKPGGESDGTSDSSAARYDSFCGKPDAFKPSPEAGTWNQAYFEMLLKNANPSF
B2: 25 kD endoglucanase (pI 4.1), C1-EG5, Family 45, Chrysosporium lucknowense (enzyme)
chain: QLSGSGQTTRYWDCCKPSCAWPGKGPSSPVQACDKNDNPLNDGGSTRSGCDAGGSAYMCSSQSPWAVSDELSYGWAAVKLAGSSESQWCCACYELTFTSGPVAGKKMIVQATNTGGDLGDNHFDLAIPGGGVGIFNACTDQYGAPPNGWGDRYGGIHSKEECESFPEALKPGCNWRFDWFQNADNPSVTFQEVACPSELTSKSGCSR

The target in the assay is Dyed casein.
“55 kD cellobiohydrolase (pI 4.4), CBH1, Chrysosporium lucknowense (enzyme)” registered an activity toward dyed casein, 50° C., arbitrary units/mg (arbitrary units/mg) of 0.
For B1 the value was 0; for B2, 0.
